# B1: VET 135 X VET 260: antibody variant: light chain VET135 (CD20-2 LC + VET101) with heavy chain VET260 (VET259 CD20-2 HC FR4T + VET201) (antibody)
# heavy: QVQLQQSRAELVRPGASVTLSCKPSGYTFTDYEVHWVKQTPVHGLEWIGAIDPETGGTADNQKFKGKAILTADKSSSTAYMELRSLTSEDSAVYYCTNFVDVWGTGTTVTVSSASTTAPSVFPLAPSCGSQSGSTVALACLVSGYFPEPVTVSWNSGSLTSGVHTFPSVLQSSGLYSLSSMVTVPSSRWPSETFTCNVAHPASKTKVDKPVPKRENGRVPRPPDCPKCPAPEMLGGPSVFIFPPKPKDTLLIARTPEVTCVVVDLDPEDPEVQISWFVDGKQMQTAKTQPREEQFNGTYRVVSVLPIGHQDWLKGKQFTCKVNNKALPSPIERTISKARGQAHQPSVYVLPPSREELSKNTVSLTCLIKDFFPPDIDVEWQSNGQQEPESKYRTTPPQLDEDGSYFLYSKLSVDKSRWQRGDTFICAVMHEALHNHYTQKSLSHSPGK
# light: DVVMSQSPSSLAVSVGEKVTMSCKSSQSLLYSGNQKNYLAWYQQKPGQSPRLLIYWASTRESGVPDRFTGSGSGTDFTLTISSVKAEDLAVFYCQQYYNYPLTFGAGTKLELKGQPKASPSVTLFPPSSEELGANKATLVCLISDFYPSGVTVAWKADGSPITQGVETTKPSKQSNNKYAASSYLSLTPDKWKSHSSFSCLVTHEGSTVEKKVAPAECS
# B2: VET 133 X VET 257: antibody variant: light chain VET133 (VET132 CD20-1 LC + VET101) with heavy chain VET257 (VET256 CD20-1 HC + VET201) (antibody)
# heavy: EIQLQQSGAELVKPGASVKISCKASGYTFTDYYINWVKQRPGQGLEWIGKIGPGSGRTYYNEKFKGKATLTADKSSSTAYIQISSLTSEDSAVYFCAVLSWGQGTTLTVSSASTTAPSVFPLAPSCGSQSGSTVALACLVSGYFPEPVTVSWNSGSLTSGVHTFPSVLQSSGLYSLSSMVTVPSSRWPSETFTCNVAHPASKTKVDKPVPKRENGRVPRPPDCPKCPAPEMLGGPSVFIFPPKPKDTLLIARTPEVTCVVVDLDPEDPEVQISWFVDGKQMQTAKTQPREEQFNGTYRVVSVLPIGHQDWLKGKQFTCKVNNKALPSPIERTISKARGQAHQPSVYVLPPSREELSKNTVSLTCLIKDFFPPDIDVEWQSNGQQEPESKYRTTPPQLDEDGSYFLYSKLSVDKSRWQRGDTFICAVMHEALHNHYTQKSLSHSPGK
# light: DVQITQTPLTLSVTFGQPASISCKSSQSLLKSDGRTYLNWLLQRPGQSPKRLLYLVSKLDSGVPDRFTGSGSGTDFTLKISRVEAEDLGVYYCWQGTHFPQTFGGGTKLEIKGQPKASPSVTLFPPSSEELGANKATLVCLISDFYPSGVTVAWKADGSPITQGVETTKPSKQSNNKYAASSYLSLTPDKWKSHSSFSCLVTHEGSTVEKKVAPAECS
# System: lymphoma cells
# Experiment: MTT proliferation assay on lymphoma cells
# Type: cell-based
# Settings: 72 h; for percentage of reduction of cell proliferation, Doxorubicin 6.6 nM: Mab 10 ug/mL plus Doxorubicin 6.6 nM; for percentage of reduction of cell proliferation, Doxorubicin 66 nM: Mab 10 ug/mL plus Doxorubicin 66 nM; for percentage of reduction of cell proliferation, Doxorubicin 0 nM: Mab 10 ug/mL, triplicate
# Experimental: Lymphoma cells are grown in RPMI medium with FBS 10% in 5% carbon dioxide (CO2) at 37° C. Cells are seeded at 5,000 cells/well in 96-well plates in medium with 5% FBS. Cells are treated with the antibody variants or isotype controls (10 μg/ml) and incubated for 72 h at 37° C. in a CO2 incubator. Ten (10) μL, MTT solution is added to each well and incubated at 37° C. for 4 h according to the manufacturer's instruction (Trevigen). Optical density (OD) is then measured at 490 nm and data is presented as percentage of reduction of cell proliferation of triplicate measurements. The data in Table 5 illustrate that the antibody variants have an anti-proliferative effect on lymphoma cells. Furthermore, the antibody variants sensitize the lymphoma cell line to Doxorubicin, a cytotoxic drug commonly used in the treatment of cancer for companion animals.
# The antibody variants of the present invention are further tested for their ability to alter proliferation of lymphoma cells. Cell assays are conducted as described in the example above. Data is presented in Table 6 as percentage of reduction of cell proliferation of triplicate measurements.
molecule,measurement,value
B1,"percentage of reduction of cell proliferation, Doxorubicin 6.6 nM",58.63%
same,"percentage of reduction of cell proliferation, Doxorubicin 66 nM",64.88%
same,"percentage of reduction of cell proliferation, Doxorubicin 0 nM",40.48%
B2,"percentage of reduction of cell proliferation, Doxorubicin 6.6 nM",65.77%
same,"percentage of reduction of cell proliferation, Doxorubicin 66 nM",76.79%
same,"percentage of reduction of cell proliferation, Doxorubicin 0 nM",59.82%

# From patent publication US9616120B2, “Monoclonal antibodies directed to CD20” (VET THERAPEUTICS, INC., priority 2010, dated 2017)
